{"source": "patent US20230181672", "proteins": {"B1": {"name": "methylmalonylated K4R mutated SIRT5-FLAG (protein)", "chain": "SSSMADFRKFFAKAKHIVIISGAGVSAESGVPTFRGAGGYWRRWQAQDLATPLAFAHNPSRVWEFYHYRREVMGSREPNAGHRAIAECETRLGKQGRRVVVITQNIDELHRRAGTRNLLEIHGSLFKTRCTSCGVVAENYKSPICPALSGKGAPEPGTQDASIPVEKLPRCEEAGCGGLLRPHVVWFGENLDPAILEEVDRELAHCDLCLVVGTSSVVYPAAMFAPQVAARGVPVAEFNTETTPATNRFRFHFQGPCGTTLPEALACHENETVSEFGGDYKDDDDK"}, "B2": {"name": "propionylated SIRT5-FLAG (protein)", "chain": "B1 chain with R43K, R76K, R112K, R116K"}, "B3": {"name": "K4R mutated SIRT5-FLAG (protein)", "chain": "B1 chain"}, "B4": {"name": "SIRT5-FLAG (Addgene, 13816) (protein)", "chain": "B1 chain with R43K, R76K, R112K, R116K"}, "B5": {"name": "FLAG-SIRT1 (Addgene, 1791) (protein)", "chain": "MADEAALALQPGGSPSAAGADREAASSPAGEPLRKRPRRDGPGLERSPGEPGGAAPEREVPAAARGCPGAAAAALWREAEAEAAAAGGEQEAQATAAAGEGDNGPGLQGPSREPPLADNLYDEDDDDEGEEEEEAAAAAIGYRDNLLFGDEIITNGFHSCESDEEDRASHASSSDWTPRPRIGPYTFVQQHLMIGTDPRTILKDLLPETIPPPELDDMTLWQIVINILSEPPKRKKRKDINTIEDAVKLLQECKKIIVLTGAGVSVSCGIPDFRSRDGIYARLAVDFPDLPDPQAMFDIEYFRKDPRPFFKFAKEIYPGQFQPSLCHKFIALSDKEGKLLRNYTQNIDTLEQVAGIQRIIQCHGSFATASCLICKYKVDCEAVRGDIFNQVVPRCPRCPADEPLAIMKPEIVFFGENLPEQFHRAMKYDKDEVDLLIVIGSSLKVRPVALIPSSIPHEVPQILINREPLPHLHFDVELLGDCDVIINELCHRLGGEYAKLCCNPVKLSEITEKPPRTQKELAYLSELPPTPLHVSEDSSSPERTSPPDSSVIVTLLDQAAKSNDDLDVSESKGCMEEKPQEVQTSRNVESIAEQMENPDLKNVGSSTGEKNERTSVAGTVRKCWPNRVAKEQISRRLDGNQYLFLPPNRYIFHGAEVYSDSEDDVLSSSSCGSNSDSGTCQSPSLEEPMEDESEIEEFYNGLEDEPDVPERAGGAGFGTDGDDQEAINEAISVKQEVTDMNYPSNKS"}}, "key": {"[1]": {"target": "methylmalonylated BSA, P02769", "sequence (P02769 25-607)": "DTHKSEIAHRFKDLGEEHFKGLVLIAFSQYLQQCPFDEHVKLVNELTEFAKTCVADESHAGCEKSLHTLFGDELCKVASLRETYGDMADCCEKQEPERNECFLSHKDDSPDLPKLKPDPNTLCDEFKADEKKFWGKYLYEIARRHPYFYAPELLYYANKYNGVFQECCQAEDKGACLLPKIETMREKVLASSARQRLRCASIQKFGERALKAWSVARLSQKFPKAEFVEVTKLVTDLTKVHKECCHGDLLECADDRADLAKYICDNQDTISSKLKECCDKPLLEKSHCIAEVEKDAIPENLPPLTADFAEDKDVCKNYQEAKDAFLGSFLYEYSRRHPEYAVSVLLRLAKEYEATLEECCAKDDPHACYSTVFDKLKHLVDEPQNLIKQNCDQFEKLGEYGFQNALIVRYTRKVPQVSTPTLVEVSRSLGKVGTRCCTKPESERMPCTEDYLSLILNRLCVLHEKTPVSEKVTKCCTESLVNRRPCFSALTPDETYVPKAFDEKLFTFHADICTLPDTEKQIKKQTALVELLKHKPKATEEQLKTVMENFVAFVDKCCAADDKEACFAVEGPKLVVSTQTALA"}, "[2]": {"target": "propionylated BSA, P02769", "sequence (P02769 25-607)": "as above"}, "Cps1 (Mmut-/-;TgMCKMmut)": {"target": "T1, Cps1 (Mmut-/-;TgMCKMmut)", "T1 sequence (Q8C196 39-1500, looked up)": "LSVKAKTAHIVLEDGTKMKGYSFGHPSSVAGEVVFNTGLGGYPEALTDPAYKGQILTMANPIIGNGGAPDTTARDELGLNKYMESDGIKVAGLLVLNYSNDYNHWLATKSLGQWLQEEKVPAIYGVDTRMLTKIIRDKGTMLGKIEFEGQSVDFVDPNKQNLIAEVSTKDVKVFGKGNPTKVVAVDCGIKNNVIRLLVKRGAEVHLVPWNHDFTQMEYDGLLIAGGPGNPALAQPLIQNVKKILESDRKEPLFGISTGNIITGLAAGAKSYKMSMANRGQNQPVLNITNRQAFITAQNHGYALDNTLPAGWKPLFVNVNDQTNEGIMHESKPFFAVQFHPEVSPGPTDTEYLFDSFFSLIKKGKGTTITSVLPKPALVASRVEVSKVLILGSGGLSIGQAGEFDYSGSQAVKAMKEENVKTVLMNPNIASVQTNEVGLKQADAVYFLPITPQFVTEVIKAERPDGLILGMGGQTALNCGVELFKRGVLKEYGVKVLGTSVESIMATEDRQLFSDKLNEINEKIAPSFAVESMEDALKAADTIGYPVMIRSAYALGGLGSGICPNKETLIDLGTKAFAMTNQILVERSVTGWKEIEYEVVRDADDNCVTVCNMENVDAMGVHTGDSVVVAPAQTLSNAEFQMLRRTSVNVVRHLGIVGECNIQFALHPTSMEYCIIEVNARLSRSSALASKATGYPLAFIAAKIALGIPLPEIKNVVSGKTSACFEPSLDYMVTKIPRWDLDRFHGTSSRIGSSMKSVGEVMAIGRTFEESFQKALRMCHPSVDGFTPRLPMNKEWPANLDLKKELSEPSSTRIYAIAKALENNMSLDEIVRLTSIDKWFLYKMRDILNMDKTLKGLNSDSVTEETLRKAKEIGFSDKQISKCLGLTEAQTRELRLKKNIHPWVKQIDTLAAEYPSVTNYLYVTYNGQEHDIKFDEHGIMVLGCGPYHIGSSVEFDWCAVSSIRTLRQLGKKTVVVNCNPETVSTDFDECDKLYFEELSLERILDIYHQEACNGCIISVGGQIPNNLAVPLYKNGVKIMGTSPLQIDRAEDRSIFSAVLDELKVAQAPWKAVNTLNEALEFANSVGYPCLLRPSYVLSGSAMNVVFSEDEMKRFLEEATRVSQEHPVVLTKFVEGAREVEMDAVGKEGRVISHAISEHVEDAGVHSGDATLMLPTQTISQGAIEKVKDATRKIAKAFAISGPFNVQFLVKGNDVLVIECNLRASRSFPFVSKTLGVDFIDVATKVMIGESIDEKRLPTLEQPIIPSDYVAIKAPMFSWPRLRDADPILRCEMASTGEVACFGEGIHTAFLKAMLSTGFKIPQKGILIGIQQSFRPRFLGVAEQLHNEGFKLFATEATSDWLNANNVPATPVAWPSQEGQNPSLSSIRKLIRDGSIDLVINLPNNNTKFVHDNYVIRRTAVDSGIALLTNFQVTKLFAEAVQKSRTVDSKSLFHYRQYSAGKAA"}}, "note": "Numbering of substitutions follows the chain as printed. Names and notes keep the numbering of the source.", "data": [{"protein": "B1", "values": [{"measurement": "removal of methylmalonylation from methylmalonylated BSA (in vitro deacylation assay, Western blot)", "setting": "[1]", "value": "SIRT5 K4R did not exhibit enzymatic inhibition after hyper-methylmalonylation/acylation modifications"}]}, {"protein": "B2", "values": [{"measurement": "depropionylation of propionylated BSA (in vitro deacylation assay, Western blot)", "setting": "[2]", "value": "this activity is impaired when SIRT5 is propionylated"}]}, {"protein": "B3", "values": [{"measurement": "stated: methylmalonylation of immunoprecipitated Cps1 reduced (AP42053 immunoblot)", "setting": "Cps1 (Mmut-/-;TgMCKMmut)", "value": "AP42053 bands at about 150 kDa are faint in the 2 SuperSIRT5-AAV Mmut-/- lanes and clear in the 2 GFP-AAV Mmut-/- lanes, with like Cps1 bands; the FLAG blot of the extracts shows SuperSIRT5-FLAG below 37 kDa only in the SuperSIRT5-AAV lanes"}, {"measurement": "removal of methylmalonylation from methylmalonylated BSA (in vitro deacylation assay, Western blot)", "setting": "[1]", "value": "mutant SIRT5 K4R had the ability to remove methylmalonylation from BSA regardless of whether SIRT5 K4R was acylated or not"}]}, {"protein": "B4", "values": [{"measurement": "depropionylation of propionylated BSA (in vitro deacylation assay, Western blot)", "setting": "[2]", "value": "SIRT5 mediates the depropionylation of BSA substrate"}]}, {"protein": "B5", "values": [{"measurement": "removal of methylmalonylation from methylmalonylated BSA (in vitro deacylation assay, Western blot)", "setting": "[1]", "value": "SIRT1 (FIG. 13A) and SIRT5 (FIG. 13B) were the most effective at removing methylmalonylation from the methylmalonylated BSA substrates"}]}]}
